From the supplement of paper PMC10567573

B1: GOLPH3 (parent)
chain: FAPLLDEQYDLATKRVRQLLDLDP
B2: WDR41 (parent)
chain: WTMQAYERNFWDPSPQLDTQQEIK

Variants of: B1
Assay: protein stability index of a GFP-peptide fusion (GPS, HEK-293T) (PSI 1-6); higher = more stable
Conditions: c terminus: a fixed tail appended
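Further: lentivirally expressed fusions sorted by FACS into six bins by GFP to DsRed ratio, PSI derived from sequencing read proportions per bin multiplied by bin number.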

Protein stability index of substitutions, site by site:
P24: S 1.48, V 2.7, W 1.29, T 2.3, N 2.46, L 2.11, Q 2.33, I 1.38, H 3.6, Y 1.45, R 2.28, M 2

Variants of: B2
Assay: as above
Conditions: c terminus: a fixed tail appended

Protein stability index, by site and new letter:
D12: Y 1.4, S 2.51, P 3.31, I 2.15, C 2.25, R 3.92, F 3.8, K 2.06, Q 1.37, L 3.49, E 2.31, H 2.73, M 2.93, V 3.8, N 3.51, G 1.96
E7: F 2.88, H 2.32, V 2.88, D 3.25, W 2.39, I 1.92, M 1.93, L 3.28, G 2.7, K 2.94, P 2.79, T 2.72, A 2.02, R 2.86, N 3.04, S 2.45, C 1.77, Y 2.26
M3: L 2.69, Y 2.24, A 2.44, T 2.86, V 3.16, Q 3.07, F 2.07, K 2.96, H 2.63, I 2.14, E 3.89, C 1.97, D 3.96, S 1.79, N 2.34, G 2.46, W 2.77
Y6: Q 2.83, F 2.58, H 1.92, M 3.17, V 2.79, L 2.98, S 2.78, D 3.34, C 2.87, G 2.86, R 3.58, K 3.06, I 2.67, E 3.19, T 2.83, N 2.93, P 2.95
L17: M 3.2, W 2.37, H 3.32, S 2.68, G 3.22, P 2.9, D 3.56, T 2.31, F 2.94, R 3.23, A 2.6, N 2.8, Y 2.49, Q 3.18, E 2.9, C 2.58, V 2.75, K 2.84, I 2.25
W1: D 5.58, N 4.46, C 2.3, Q 4.81, R 4.08, A 3.77, G 4.73, E 4.41, M 3.77, V 3.47, F 2.44, I 3.35, H 3.13, Y 3.58, S 4.51, T 4.25, K 4.15, P 4.6, L 3.9
Q16: L 2.42, F 2.5, K 2.42, A 2.24, I 2.33, P 2.4, E 2.64, N 2.2, T 2.67, D 2.65, H 2.01, M 1.46, G 2.83, R 2.14, Y 1.68, W 1.4, S 1.82, V 2.03, C 2.17
N9: S 2.46, H 1.6, A 2.08, E 3.29, W 1.59, Q 1.64, K 1.94, L 1.35, I 2.04, M 1.45, C 1.94, G 2.64, P 2.71, R 1.63, D 3.69, Y 2.08, F 2.12, T 2.52
F10: I 3.58, G 3.25, Y 3.38, Q 4.61, W 2.77, A 3.23, T 3.89, N 3.7, M 4.03, R 3.55, E 3.92, K 3.72, P 3.65, C 3.52, L 3.95, D 4.7, V 3.68, S 3.95, H 4.14
T2: A 2.01, H 1.89, S 2, Q 2.89, N 2.11, F 1.71, M 2.14, Y 2.16, R 2.91, C 2.15, V 2.14, E 3.75, G 2.93, L 1.69, P 3.82, I 1.62, W 2.15
W11: E 4.57, H 4.04, Q 3.93, M 3.58, S 3.93, G 3.94, D 4.47, C 3.66, T 3.93, N 4.21, F 3.15, K 4.75, L 4.43, R 4.47, A 4.26, V 3.54, P 3.97, I 3.91, Y 3.5
S14: K 2.09, F 2.56, L 2.7, E 3.22, C 2.59, R 2.37, W 2.07, D 3.26, M 2.47, V 2.58, I 2.17, G 3.05, Q 2.76, T 2.89, P 3.16, A 3.06, N 2.74, H 1.94, Y 2.23
A5: M 2.71, S 2.75, N 3.18, F 1.91, T 2.57, V 2.12, H 3.47, G 3.53, Y 2.18, Q 2.85, K 2.96, D 3.33, I 1.68, R 3.25, E 3.65, P 2.49, L 2.66, C 2.51
P15: C 2.3, T 3.12, K 2.43, R 1.99, D 3.03, F 1.96, I 2.15, V 2.19, Y 1.81, L 2.3, S 2.02, A 2.82, W 1.75, N 2.6, M 2.7, H 2.56, Q 2.08
D18: P 2.24, V 2.63, H 2.2, A 2.32, S 2.23, I 2.28, T 2.44, R 2.02, E 2.7, C 1.95, L 2.63, K 2.16, G 2.56, Q 2.34, N 2.17, M 2.19, F 2.14
R8: G 2.59, H 3.01, C 2.59, P 3.77, V 2.57, W 2.4, S 3.21, L 2.42, Q 3.26, F 2.54, N 3.41, K 2.86, A 2.52, Y 2.52, T 2.95, D 3.9
Q4: Y 2.42, D 2.26, L 2.35, C 2.27, I 3.51, W 1.72, H 1.89, T 1.95, P 3.21, M 2.92, F 2.38, K 1.5, A 2.23, R 1.8, N 1.67, G 3.34, V 2.25, E 2.05
P13: H 2.33, V 2.04, R 3.01, G 2.1, D 3.07, Y 2.26, S 3.46, K 3.44, N 2.29, C 2.31, T 1.56, L 3.3, W 1.76, E 3.17, Q 2.65, A 2.11, M 2.34, I 2.6, F 1.82
